Measured values taken from the Human Domainome abundance scans (Beltran et al. 2025).

B1: Chromodomain-helicase-DNA-binding protein 7, residues 2564 to 2605; numbered along this chain, Q9P2D1 (parent)
chain: DPDTRIPVINLEDGTRLVGEDAPKNKDLVEWLKLHPTYTVDM

Variants of: B1
Experiment: abundance fitness (aPCA) (normalised: wild type 0, dead -1); higher = more abundant; growth selection in yeast, the domain comes from the species named
Conditions: Homo sapiens

Abundance fitness, by site and new letter:
Y38: P -0.916 | R -0.449 | A -0.447 | G -0.327 | I -1.02 | F -0.128 | S -0.297 | N -0.459 | H -0.216 | C -0.445 | W 0.085 | K -0.321 | E -0.387 | T -0.331 | D -0.278 | L -0.632 | V -0.652
T39: W -0.835 | A -0.279 | K 0.076 | R 0.002 | E 0.046 | Y -0.347 | I -0.158 | F -0.639 | S -0.038 | V -0.004 | M -0.382 | N -0.162 | Q 0.006 | H -0.186 | C -0.212 | G -0.295 | P -0.771 | L -0.42
T37: G 0.022 | F -0.727 | A -0.131 | S -0.058 | M -0.082 | N -0.059 | W -0.231 | D -0.09 | P -0.281 | L -0.159 | R -0.05 | I -0.221 | Q -0.273 | H -0.014 | E -0.202
P23: S -0.79 | H -0.679 | W -1.09 | I -0.496 | L -0.725 | A -1.35 | E -0.684 | V -0.658 | C -0.497 | Y -1.1 | K -0.515 | M -0.654 | F -0.784 | N -0.915 | Q -0.252 | R -0.843
V29: T 0.169 | M -0.095 | S 0.063 | N 0.126 | I -0.15 | A 0.11 | W -0.416 | D -0.022 | R 0.121 | H 0.098 | L -0.109 | K 0.229 | G -0.081 | P 0.063 | C -0.087 | F -0.168 | E 0.052
D27: M -0.727 | I -0.438 | K -0.517 | N 0.019 | G -0.38 | A -0.4 | W -0.563 | S -1.11 | R -0.649 | E -0.23 | Y -0.417 | F -0.405 | C -0.175 | L -0.678 | V -0.448 | P -0.88 | H -0.224 | T -0.526
N25: S -0.101 | K 0.095 | F -0.249 | R -0.1 | Y -0.253 | M -0.086 | D -0.122 | A -0.206 | P -0.4 | I -0.326 | G -0.157 | L -0.252 | W -0.418 | C -0.274 | T -0.131
M42: T 0.142 | V -0.065 | P -0.569 | W -0.438 | G -0.096 | R -0.092 | S 0.111 | H -0.04 | N 0.025 | Q 0.108 | A 0.132 | L -0.172 | Y -0.027 | F -0.244 | K -0.528 | I -0.189
K24: A -0.022 | T -0.047 | I -0.165 | Y -0.237 | G -0.552 | F -0.444 | H -0.107 | D -0.489 | R -0.188 | Q -0.243 | S -0.206 | C -0.094 | M 0.274 | V -0.475 | W -0.426 | P -0.449 | L -0.099
P36: H -0.492 | I -0.65 | E -0.406 | G -0.484 | W -0.731 | N -0.36 | Q -0.461 | D -0.685 | K -0.321 | A -0.561 | C -0.78 | S -0.457 | R -0.401 | L -0.81
E30: P -0.345 | L -0.497 | R -0.277 | K -0.333 | M -0.313 | C -0.253 | V -0.391 | G -0.145 | A 0.027 | Q -0.187 | F -0.591 | T -0.022 | N -0.065 | S -0.023 | W -0.529 | D 0.008 | H -0.262 | I -0.608
L32: V -0.586 | S -0.255 | T -0.334 | F -0.375 | R -0.332 | I -0.434 | A -0.537 | D -0.332 | E -0.324 | N -0.342 | W -0.574 | G -0.214 | C -0.343
L34: Y -0.251 | P -0.328 | D -0.042 | K -0.029 | M 0.011 | V -0.039 | A 0.141 | I -0.417 | E 0.048 | N -0.014 | F -0.334 | T 0.03 | G -0.047 | C -0.002 | H -0.037
K33: A 0.162 | C -0.4 | S -0.01 | N -0.095 | D -0.01 | G -0.215 | E -0.04 | I -0.449 | L -0.17 | T -0.468 | V -0.261 | H -0.22 | W -0.319 | F -0.339
L28: P -0.568 | M -0.321 | S -0.39 | E -0.41 | D -0.432 | I -0.129 | T -0.355 | W -0.827 | V -0.185 | F -0.24 | N -0.524 | K -0.454 | Y -0.499 | A -0.292 | G -0.401 | Q -0.841 | H -0.134
D41: A -0.396 | H -0.364 | L -0.594 | V -0.793 | P -0.453 | K -1.14 | Q -0.422 | T -0.586 | G -0.335 | C -0.531 | E -0.179 | R -0.841 | W -0.84 | I -0.871 | M -0.531 | S -0.438 | N -0.343
H35: K -0.546 | Q -0.56 | C -0.866 | F -0.744 | D -0.547 | T -0.616 | Y -0.593 | E -0.615 | N -0.064 | L -0.866 | G -0.758 | V -0.751 | M -0.469 | W -0.764
A22: Y -1.03 | W -1.04 | T -0.527 | S -0.358 | V -0.79
K26: I -0.255 | V -0.166 | S -0.106 | M -0.278 | H 0.203 | P -0.56 | G -0.208 | R -0.081 | F -0.486 | W -0.639 | C -0.166 | T -0.361 | D -0.258 | Y -0.481 | L -0.559 | A -0.068 | N -0.276 | Q -0.039 | E 0.154
V40: N -0.341 | T -0.08 | A 0.135 | E -0.238 | K -0.11 | I -0.135 | S -0.144 | M -0.379 | H -0.372 | C -0.152 | Q -0.108 | G -0.367 | D -0.295 | F -0.59 | P -0.166 | L -0.381 | R -0.065
W31: A -0.166 | S -0.38 | L -0.492 | D -0.128 | P -0.141 | E -0.099 | Q -0.569 | G -0.163 | F 0.223 | I -0.463 | R -0.363 | T -0.398 | C -0.301 | V -0.336 | M -0.196 | Y -0.297
